Data: article PMC8179133, “PilB from Streptococcus sanguinis is a bimodular type IV pilin with a direct role in adhesion” (Proceedings of the National Academy of Sciences of the …, 2021)

B1: PilBvWA (domain or fragment)
chain: QGQMNIAVSFVFDTSGSMDWDLQGRNVKKTGNESRMDILRKKSVIMIKDLAEIGNISVNLVGFSTSAKYIQQNFSNLDNGTNTIIATITKRENLNPDGVTNPGDGLRYGMISLQSQPAQLKYIVLLTDGIPNAYLVDSRALYAGNRVDLSQGAGRVTFNNPIYDLSPTLGYEYSRLGYDLYSRDSITRENSIAYAGEVSKKFGLGIKRVNVIGFSGVNHEIAYGQSLTDRIGEGGMETKYVSATNEEALQKTFSDIKKQIQQDLWFVSGP
notes: PilB of Streptococcus sanguinis 2908, residues 192-461: only the von Willebrand factor A-like (vWA) module; expressed from pET28-pilB192-461; also called vWA module of PilB; PilB 192-461; source: E. coli BL21(DE3), purified; not shown: 6His, N-terminal, kept
B2: 6His-PilB_(36-461) (domain or fragment)
chain: SSRELIEREASIQAEMRTSMQYVDRTVGKATSIFILDDSKFKGSKQGLTREWSYIGLSADGKKVMNYVWNKQKQDWDVSELGTKSLYNMKLDLEFKTEGAYQDNRLISYNLTGKYPDTNNKLGIDTAISALNTKQVFSKVAKGKKGIAIAYRTDPIQGQMNIAVSFVFDTSGSMDWDLQGRNVKKTGNESRMDILRKKSVIMIKDLAEIGNISVNLVGFSTSAKYIQQNFSNLDNGTNTIIATITKRENLNPDGVTNPGDGLRYGMISLQSQPAQLKYIVLLTDGIPNAYLVDSRALYAGNRVDLSQGAGRVTFNNPIYDLSPTLGYEYSRLGYDLYSRDSITRENSIAYAGEVSKKFGLGIKRVNVIGFSGVNHEIAYGQSLTDRIGEGGMETKYVSATNEEALQKTFSDIKKQIQQDLWFVSGP
notes: pilin module, short loop and vWA module; 48.4 kDa; synthetic gene codon optimized for E. coli; The 6His tag is noncleavable; also called native PilB; soluble portion of PilB; not shown: 6His, N-terminal, kept

What was measured:
[1] = biological target: fibronectin from human plasma (human); experiment: ELISA; putative ligands (5 µg/mL in carbonate-bicarbonate buffer, 50 µL) adsorbed on MaxiSorp plates O/N at 4 °C; blocked 1 h with 3% BSA or 1% gelatin in PBS; serial twofold dilutions of 6His-PilB (40 to 0.625 µg/mL) for 2 h at 37 °C; detected with anti-6His antibody and HRP-linked anti-rabbit IgG, read at 450 nm; Kd by nonlinear regression (One site - Total and nonspecific binding) with BSA or gelatin as nonspecific binding control
[2] = biological target: fibrinogen from human plasma (human, UniProt P02671 36-866; P02675 45-491; P02679 27-453, Plasma-purified disulfide-linked (AalphaBbetagamma)2 hexamer, N-glycosylated on the beta and gamma chains, fibrinopeptides A and B retained. Limits are not printed. The alpha chain is taken as the mai); experiment: ELISA; putative ligands (5 µg/mL in carbonate-bicarbonate buffer, 50 µL) adsorbed on MaxiSorp plates O/N at 4 °C; blocked 1 h with 3% BSA or 1% gelatin in PBS; serial twofold dilutions of 6His-PilB (40 to 0.625 µg/mL) for 2 h at 37 °C; detected with anti-6His antibody and HRP-linked anti-rabbit IgG, read at 450 nm; Kd by nonlinear regression (One site - Total and nonspecific binding) with BSA or gelatin as …; details: both partners purified
fibrinogen from human plasma, sequence (P02671 36-866, chain 1 of 3): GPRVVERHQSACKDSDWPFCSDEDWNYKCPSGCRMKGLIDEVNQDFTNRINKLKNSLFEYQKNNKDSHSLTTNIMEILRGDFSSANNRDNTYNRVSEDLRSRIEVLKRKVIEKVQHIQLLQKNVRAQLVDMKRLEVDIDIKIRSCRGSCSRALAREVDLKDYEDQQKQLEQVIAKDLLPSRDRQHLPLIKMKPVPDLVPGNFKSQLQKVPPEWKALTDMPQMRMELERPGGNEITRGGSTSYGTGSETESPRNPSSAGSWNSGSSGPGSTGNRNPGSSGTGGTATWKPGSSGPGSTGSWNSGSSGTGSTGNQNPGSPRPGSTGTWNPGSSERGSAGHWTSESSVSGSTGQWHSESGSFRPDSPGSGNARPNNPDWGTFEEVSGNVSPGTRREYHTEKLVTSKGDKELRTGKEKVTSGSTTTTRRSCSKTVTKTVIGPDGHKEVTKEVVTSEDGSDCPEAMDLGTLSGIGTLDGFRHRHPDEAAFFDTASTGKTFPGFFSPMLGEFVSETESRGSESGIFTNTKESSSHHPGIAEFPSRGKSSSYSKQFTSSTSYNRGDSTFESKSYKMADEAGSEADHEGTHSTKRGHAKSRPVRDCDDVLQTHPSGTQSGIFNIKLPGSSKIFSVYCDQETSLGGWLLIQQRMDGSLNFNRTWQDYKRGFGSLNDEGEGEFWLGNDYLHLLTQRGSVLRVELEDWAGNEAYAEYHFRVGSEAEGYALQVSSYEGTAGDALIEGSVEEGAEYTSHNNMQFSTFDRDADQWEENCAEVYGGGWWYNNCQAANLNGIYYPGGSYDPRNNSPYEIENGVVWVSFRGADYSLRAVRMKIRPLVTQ
fibrinogen from human plasma, sequence (P02675 45-491, chain 2 of 3): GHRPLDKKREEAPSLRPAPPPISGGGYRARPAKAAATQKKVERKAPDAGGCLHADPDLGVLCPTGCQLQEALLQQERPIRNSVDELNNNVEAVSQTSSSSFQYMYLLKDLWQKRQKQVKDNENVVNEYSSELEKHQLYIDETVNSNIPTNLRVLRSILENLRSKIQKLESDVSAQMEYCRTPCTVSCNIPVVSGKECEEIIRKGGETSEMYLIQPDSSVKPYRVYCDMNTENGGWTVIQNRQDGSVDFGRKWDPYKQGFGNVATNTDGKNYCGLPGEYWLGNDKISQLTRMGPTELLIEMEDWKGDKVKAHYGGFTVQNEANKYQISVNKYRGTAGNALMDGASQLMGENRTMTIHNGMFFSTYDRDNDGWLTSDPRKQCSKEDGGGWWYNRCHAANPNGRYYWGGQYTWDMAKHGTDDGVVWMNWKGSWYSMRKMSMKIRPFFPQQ
fibrinogen from human plasma, sequence (P02679 27-453, chain 3 of 3): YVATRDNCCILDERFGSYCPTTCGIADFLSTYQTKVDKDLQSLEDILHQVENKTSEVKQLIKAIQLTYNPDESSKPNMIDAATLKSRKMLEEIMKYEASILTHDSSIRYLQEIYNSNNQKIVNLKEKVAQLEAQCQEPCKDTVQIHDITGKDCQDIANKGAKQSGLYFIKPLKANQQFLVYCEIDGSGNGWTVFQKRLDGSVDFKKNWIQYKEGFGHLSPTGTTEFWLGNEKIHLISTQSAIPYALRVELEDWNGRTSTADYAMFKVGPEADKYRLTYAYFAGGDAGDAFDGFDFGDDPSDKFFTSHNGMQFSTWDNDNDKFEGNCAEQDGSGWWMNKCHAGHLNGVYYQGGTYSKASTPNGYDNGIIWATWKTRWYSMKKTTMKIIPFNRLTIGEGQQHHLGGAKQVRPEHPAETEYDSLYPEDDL

Row | Molecule | Kd [1] [nM] | Kd [2] [nM]
1 | PilBvWA (from UniProt A0A0B7GP99 192-461) (domain or fragment) | 997 | 
2 | 6His-PilB_(36-461) (from UniProt A0A0B7GP99 36-461) (domain or fragment) | 494 | 
3 | B1 |  | 337
4 | B2 |  | 865
